By EC50 is commonly meant the concentration at which the effect is half-maximal.

This note sets out measurements from patent publication US20130101549A1 (Biogen, published 2013).

First the molecules themselves.
T1: Her2-Fc D1 (MR066)
T1 construct: also called ErbB2-Fc Domain 1
T1 chain: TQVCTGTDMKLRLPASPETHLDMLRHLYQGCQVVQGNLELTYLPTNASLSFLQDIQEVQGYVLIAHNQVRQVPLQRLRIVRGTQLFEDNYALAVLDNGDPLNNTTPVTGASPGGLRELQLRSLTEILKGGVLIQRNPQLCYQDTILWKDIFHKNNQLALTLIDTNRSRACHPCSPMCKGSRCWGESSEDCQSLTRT

T2: Her2-Fc D1-D2 (MR067)
T2 construct: also called ErbB2-Fc Domains 1-2
T2 chain: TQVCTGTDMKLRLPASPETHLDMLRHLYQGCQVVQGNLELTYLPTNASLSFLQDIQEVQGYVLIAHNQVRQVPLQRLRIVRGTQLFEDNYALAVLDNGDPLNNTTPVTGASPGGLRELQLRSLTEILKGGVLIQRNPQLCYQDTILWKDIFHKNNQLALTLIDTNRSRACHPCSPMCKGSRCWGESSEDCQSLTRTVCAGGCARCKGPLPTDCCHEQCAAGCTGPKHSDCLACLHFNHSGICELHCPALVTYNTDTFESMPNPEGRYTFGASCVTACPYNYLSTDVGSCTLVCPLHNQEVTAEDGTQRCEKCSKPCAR

B1: BIIB66A12 Fab (Fab, V domains shown)
VH: EVQLLESGGGLVQPGGSLRLSCAASGFTFSMYSMQWVRQAPGKGLEWVSVIGSSGGQTGYADSVKGRFTISRDNSKNTLYLQMNSLRAEDTAVYYCARVRDYYGSGSYYLDPWGQGTLVTVSS
VL: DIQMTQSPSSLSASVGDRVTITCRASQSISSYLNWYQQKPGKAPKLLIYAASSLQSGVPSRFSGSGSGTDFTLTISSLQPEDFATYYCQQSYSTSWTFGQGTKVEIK
notes: Soluble human Fab from a naive phagemid Fab library
B2: BIIB67F11 Fab (Fab, V domains shown)
VH: EVQLLESGGGLVQPGGSLRLSCAASGFTFSNYYMMWVRQAPGKGLEWVSVIGSSGGMTNYADSVKGRFTISRDNSKNTLYLQMNSLRAEDTAVYYCARGYPTGYYDSSGWVYSYYGIDVWGQGTTVTVSS
VL: DIQMTQSPSSLSASIGDRVTITCQASQDTDNRLHWYQQKSGRAPKLLIYDAVNLKRGVPSRFRGSGSGTNFILTITNLQPEDMATYFCQHSDGLSLAFGGGTKLEIK
notes: as for B1
B3: BIIB65C10 Fab (Fab, V domains shown)
VH: EVQLLESGGGLVQPGGSLRLSCAASGFTFSYYPMMWVRQAPGKGLEWVSSIWPSGGFTKYADSVKGRFTISRDNSKNTLYLQMNSLRAEDTATYYCARVSSSSWYGYLYWGQGTLVTVSS
VL: not shown
notes: as for B1
B4: BIIB65H09 Fab (Fab, V domains shown)
VH: EVQLLESGGGLVQPGGSLRLSCAASGFTFSWYSMWWVRQAPGKGLEWVSSIVSSGGQTRYADSVKGRFTISRDNSKNTLYLQMNSLRAEDTAVYYCARVKGYYYYIDVWGKGTTVTVSS
VL: DIQMTQSPGTLSLSPGERATLSCRASQSVDSSYLSWYQQKPGQAPRLLIYGASTRATGIPARFSGSGSGTDFTLTVSRLEPEDFAVYYCQQHGYSSRTFGQGTKVEIK
notes: as for B1
B5: BIIB66C01 Fab (Fab, V domains shown)
VH: EVQLLESGGGLVQPGGSLRLSCAASGFTFSWYSMSWVRQAPGKGLEWVSSISSSGGPTHYADSVKGRFTISRDNSKNTLYLQMNSLRAEDTAVYYCARDSSYSGTSWGQGTLVTVSS
VL: QYELTQPPSVSGTPGQRVTISCSGSSSNIGSEYVYWFQQLPGTAPRLLIYRNDQRPSGVPDRFSGSKSGTSASLAISGLRSEDETDYYCTTWDDSLSGPVFGGGTKLTVL
notes: as for B1
B6: BIIB65B03 Fab (Fab, V domains shown)
VH: EVQLLESGGGLVQPGGSLRLSCAASGFTFSWYRMNWVRQAPGKGLEWVSSIYSSGGPTNYADSVKGRFTISRDNSQNTLYLQMNSLRAEDTAVYYCTREKPDYYDSSGYLDYWGQGTLVTVSS
VL: DIQMTQSPGTLSLSPGERSTLSCRASQSVSSSYLAWYQQKPGQAPRLLIYGASSRATGIPDRFSGSGSGTDFTLTISRLEPEDFGVYYCHQYGRPPVFGPGTKVDIK
notes: as for B1
B7: BIIB69A09 Fab (Fab, V domains shown)
VH: EVQLLESGGGLVQPGGSLRLSCAASGFTFSRYNMWWVRQAPGKGLEWVSVIRSSGGYTGYADSVKGRFTISRDNSKNTLYLQMNSLRAEDTAVYYCARWNSGYSYWDYYYGMDVWGQGTTVTVSS
VL: DIQMTQSPSSLSASVGDRVTITCRASQSISSYLNWYQQKPGKAPKLLIYAASSLQSGVPSRFSGSGSGTDFTLTISSLQPEDFATYYCQQFNTYPITFGPGTKVDIK
notes: as for B1
B8: BIIB67F10 Fab (Fab, V domains shown)
VH: EVQLLESGGGLVQPGGSLRLSCAASGFTFSPYMMVWVRQAPGKGLEWVSWISPSGGYTFYADSVKGRFTISRDNSKNTLYLQMNSLRAEDTAVYYCAYGTYPLTYWGQGTLVTVSS
VL: QSELTQTPSVSVSPGQTASITCSGDKLGDKYVSWFQLKPGQSPLLVIYQDSKWPSGIPERFSGSNSGNTATLTISGTQATDEADYYCQVWDISHVVFGGGTKLTVL
notes: as for B1

The target of the first test is T3, human HER2/ErbB2 on cells (human, UniProt P04626 23-1255).
T3 construct: whole, on cells; also called hHER2/ErbB2; wild type HER2/ErbB
In words: flow cytometry on CHO cells expressing human HER2. As for the experimental part: CHO cells (Chinese Hamster Ovary cells) stably transfected with hHER2 expression vector and selected in G418 containing medium. G418 resistant clones were pooled and split 24 hours prior to the setup of the assay to obtain 70% confluent monolayer. Routinely, CHO cell line was maintained within 20 passages. Cells were lifted with cell dissociation buffer (Gibco catalog #13151-014), counted, washed and adjusted to 1×10⁶ cells/ml and one ml of cells were then added to each tube (12×75 mm tube Falcon catalog #352054). Cells were pelleted and supernatant removed by centrifugation at 1200 rpm for 5 min and 100 μl of diluted antibodies were then added to the cell pellet. Purified Fabs were tested at a starting concentration of either 210 or 60 μg/ml with 1:3 dilutions in FACS buffer, down to 0.001 μg/ml. FACS buffer used throughout the assay was PBS (without Ca^{+±}/Mg^{+±}) containing 1% BSA (Sigma catalog #A-7906) and 0.1% Sodium Azide (Sigma catalog #S2002). Samples were allowed to incubate on ice for 1 hour and 15 minutes then were washed with 2 ml FACS buffer and centrifuged at 1200 rpm for 5 minutes at 4° C. The supernatant was aspirated and 100 μl of the secondary detection antibody was added to each corresponding tube in FACS buffer. Samples were then incubated for 30 minutes on ice, in the dark. Cells were washed as described above, then, re-suspended in 250 μl FACS buffer per tube/sample.
A full titration was performed on MCF7 and SKBR3 tumor cell lines, and human Her2-CHO and murine Her2-CHO cell lines in order to calculate an approximate EC50 (data not shown, see summary in Table 1).
Background: Flow cytometry measures light scatter and fluorescence of single cells or particles in a stream.
B1 came in with an EC50 of 60 nM.
On to B2, for which the midpoint of the response, the EC50, lay at 7 nM.
On to B3, for which the EC50 stood at 6 nM.
B4 returned an EC50 of 20 nM.
For the molecule B5, the midpoint of the response, the EC50, lay at 12 nM.
B6 returned an EC50 of 15 nM.
As for B7, the EC50 was found to be 2 nM.
In turn, B8 returned an EC50 of 2 nM.

The target in a further test is T4, EGFR on MDA-MB-468 cells (UniProt P00533 25-1210, limits assumed).
T4 construct: whole, on cells; also called MDA-MB-468 tumor cell line (EGFR+, HER2-)
Kind of test: FACS on MDA-MB-468 cells (EGFR+, HER2-).
For B1, the binding result is “no binding”.
Same read-out and setting: then B2, with “no binding”; and B3, with “no binding”; and B4, with “no binding”.
B5: the binding result was “no binding”.
Still for that read-out and setting: then B6, with “no binding”; and B7, with “no binding”.
With B8, the binding result is reported as “no binding”.

A further test deals with T5, murine HER2 on CHO cells (mouse, UniProt P70424 23-1256).
T5 construct: whole, on cells; also called mHER2/ErbB2; murine Her2-CHO
In words: FACS on CHO cells expressing murine HER2.
As for B1, the binding result is listed as “no binding”.
B2: the binding result is recorded as “no binding”.
For the molecule B3, the binding result is reported as “no binding”.
Still for that read-out and setting: then B4, with “no binding”; and B5, with “no binding”; and B6, with “no binding”.
Same read-out and setting: then B7, with “no binding”.
Take B8: the binding result was “no binding”.

The next test addresses T6, Her2-Fc D1-D2-D3-D4 (MR069).
T6 construct: made in house, kept apart from the R&D Systems HER2-Fc; also called ErbB2-Fc full length ECD
Kind of test: ELISA, HER2-Fc construct captured by anti-huFc, Fab from 1 ug/ml in 5-fold steps, HRP anti-kappa/lambda. As for the experimental part: (§1) Nunc Maxisorp ELISA plates were coated with 5 ug/ml rabbit pAbs anti-human Fc gamma in PBS overnight at 4 degrees. Plates were washed one time with PBST (PBS, 0.05% tween 20) and blocked with 1% BSA in PBS for one hour at room temperature. Plates were washed one time with PBST and incubated with 1 ug/ml HER2-Fc fusion protein for one hour. Plates were washed three times with PBST and dilutions of Fab (four 5-fold serial dilutions, starting at 1 ug/ml) in block were added and incubated for ninety minutes. Plates were washed three times with PBST and incubated with 1:2,000 HRP-labelled goat anti-human kappa (Southern Biotech cat#2060-05) and HRP-labelled goat anti-human lambda (Southern Biotech cat#2070-05) in block for one hour at room temperature. Plates were washed three times with PBST, developed with TMB solution for 5 minutes, and stopped with equal volume 1 N H₂SO₄. Absorbance values were read at 450 nm.
(In an ELISA, binding on a coated surface is turned into a signal by an enzyme label.)
Consider B1, for which the binding result is recorded as “binds”.
For the molecule B2, the binding result is listed as “binds”.
With B3, the binding result is reported as “binds”.
In the case of B4, the binding result was “binds”.
As for B5, the binding result was “binds”.
Same read-out and setting: then B6, with “binds”; and B7, with “binds”; and B8, with “binds”.

The target of another test is T1, Her2-Fc D1 (MR066). The description is as above. As for the experimental part:
as §1
As for B1, the binding result was “no binding (tested: 1 ug/ml)”.
For B2, the binding result is listed as “binds”.
B3: the binding result is “no binding (tested: 1 ug/ml)”.
For B4, the binding result is reported as “no binding (tested: 1 ug/ml)”.
On the same count and under the same terms, as for B5, the entry is “no binding (tested: 1 ug/ml)”; as for B6, “no binding (tested: 1 ug/ml)”.
Consider B7, for which the binding result is “binds”.
Consider B8, for which the binding result is listed as “binds”.

The next test addresses T2, Her2-Fc D1-D2 (MR067). Described as above. The procedure: as §1
As for B1, the binding result is recorded as “no binding (tested: 1 ug/ml)”.
Consider B2, for which the binding result is “binds”.
Consider B3, for which the binding result is “binds”.
For the molecule B4, the binding result is “no binding (tested: 1 ug/ml)”.
The same measure, in the same setting: as for B5, the entry is “no binding (tested: 1 ug/ml)”.
B6: the binding result is listed as “no binding (tested: 1 ug/ml)”.
Regarding B7, the binding result is “binds”.
For B8, the binding result is reported as “binds”.

Another test deals with T7, Her2-Fc D1-D2-D3 (MR068).
T7 construct: also called ErbB2-Fc Domains 1-3
Described as above. As for the experimental part:
as §1
For B1, the binding result is reported as “binds”.
In the case of B2, the binding result was “binds”.
Same read-out and setting: then B3, with “binds”; and B4, with “binds”.
Consider B5, for which the binding result is recorded as “binds”.
For the molecule B6, the binding result was “binds”.
With B7, the binding result is recorded as “binds”.
The same measure, in the same setting: as for B8, the entry is “binds”.
